Laboratory results from the nanobody polyreactivity screen of Harvey et al. (2022).

Assay: yeast display, Sf9 membrane polyspecificity reagent, FACS + sequencing; frameworks hold sequencing errors
How it was run: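 Nanobodies from a synthetic yeast display library (Saccharomyces cerevisiae BJ5465), induced 36–48 hours with galactose, were stained 1 hour at 4 °C with 10% biotinylated, detergent-solubilized Sf9 membrane reagent, enriched on streptavidin microbeads, then FACS-sorted. Anti-HA (expression) and streptavidin (reagent binding) fluorescence set low and high (top ~1%) gates. Polyreactivity labels come from the gate of origin. Genes were colony-PCR amplified, MiSeq 2 × 250 sequenced and filtered by CDR length.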

Sequence	polyreactivity (PSR sort gate)
QVQLVESGGGLVQAGGSLRLSCAASGSTFTYYAMGWYRKAPGKETELVAAIDFSGTSTYYADSVKGRFTISRDNAQNTVYLKMNSLKPEDTSVYYCAASQSWYWGGAHDNGEFGYWGQGTQVTVSS	low polyreactivity
QVHLVESGGGLVQAGGSLRLSCAASGRTFDVYAMGWYRQAPGKERELVATITDSGGNTYYADSVKGRFTISRDNAKNTVYLQMNSLKPEDTAVYYCAADRIYPYYRWSGAHRSDVDYWGQGTQVTVSS	low polyreactivity
QVQLVESGGGLVQAGGSLRLSCAASGRILKWYAMGGYRQAPGKVRELVAAISARGGSTFYADSVKGRFTSSRDNAKNTVYLPMNSLKPEDTAVYYCAKRWPYTMYYWGQGTQVTVSS	high polyreactivity
QVQRVESGGGLVQAGGSLRLSCAASGIIFGSYAMGGYRQAPGKERELVAAITSIGTRTYYADSVKGRFTISRDNAKNTVYLQMNSLKPEDTAVYYCNAPRFWSRHGLRDYWGQGTQVTVSS	high polyreactivity
QVQLVESGGGFVQAGGSLRLSCAASGSIFKRYAMGWYRQAPGKEWELVARISRRGGTYYADSVKGRFTISRDNAKNTVYLQINSLKPDDTAVYYCNANVIFADNNDRDYWGQGTQVTVSS	low polyreactivity
QVQLVDSGGGLVQAGGRLRLSSAPTGSTFYVYLMGGYRQAHGKERELVAVIDWLGGSTYYADSVKGRFTISRDNAKNTVYLQLNSLKPEDTAVYYCYKDAQFYYNLPYYKERDWGQGTQVTVSS	low polyreactivity
QVQLVESGGGLVQAGGSLRLSCAASGSIFVTYAMGWYRPAPGKERELVAAISTSGGSTYADSVKGRFTISRDNAKNTVYLQMNSLKPVDTAVYYCNADDPGYAVPWYWFKYDYWGQGTQVTVSS	low polyreactivity
QVQLVESGGGLVQAGGTLRLSCAASGSTFDVYAMGWYRQSPVKESELVADINYGDASTYYADSVKGRFTISRDNAKNTVYLQMISLNPEDTSVYYCAAFVYVLNYLSDGGSVYREHDYWGQGTKVTVSS	low polyreactivity
QVQLVESGGGLVQAGGSLRLSCAASGSIYTQNAMGWYRQAPGKERELVADISRGSTYYADSVKGRFTISRDNAKNTVYLQMNSLKPEDTAVYYCAADDIAHPSFVSTVDVGMDYWGQGTQVTVSS	low polyreactivity
QVQLVESGGGLVQAGGSLRLSCAASGRILLYNAMGWYRQAPGKERELVAAISRSGGYTYYADSVNWRFTISRDNAKNTVYLQMNSLKPEDTAVYYCAAQHGYPRYYYWGQGTQVTVSS	high polyreactivity
QVQLVESGGGLVQAGGRLRLSCAASGRIGPNVMGWYRQPPGKERELVAAISRRGGSTYYADSVKGRFTISRDNAKNTVYLQMNSLKPEDTAVYYCAKDLYTLAVKGGDYWGQGTQVTVSS	high polyreactivity
QVQLVESGGGLVQAGGSLRLSCAASARTYGANAMGRYRQAPGKERELVAAISYHGTRTYYADSVKGRFTISRDNAKNTVYLQMNSLKPEDTAVYYCAAVCKPGVYQEGDEWGQGTQVTVSS	high polyreactivity
QDQLVESWGGLDKAGGSLLLICDASGSTFKFYTMGWYRQAPGKERELVATIDWSGVSTYYADSVKGRFTISRDNAKNTVYLQMNSLKPEDTAVYYCAARSLRLVGPYYYWGQGTQVTVSS	high polyreactivity
QVQLVESGVGVVQAGGSLRLSCAASGSTYVDNAMGWYRQAPGKERELVAGNSWSGASTYYADSVKGRFTISRDNAKNTFYLQMNSLKAEDTAVYYCATRVRAYYHQSWGYTERVYWGQGTQVTVSS	high polyreactivity
QVQLVESGGGLVQAGGSLRLSCAASGFIFRYNAMGWYRQAPGKERELVAVITSGGRTYYADSVKGRFTISRDNAKNTVYLQMNSLKPEDTAVYYCNADSRHRRNYDYWGQGTQVTVSS	high polyreactivity
QVQLVESGGGLVQAGGSLRLSCAASGSIFSENAMGWYRQAPGKERELVAAITGGASTNYADSVKGRFTISRDNAKNTVYLQMNSLKPEDNAVYYCNTGGPRGTTYDYWGQGTQVTVSS	low polyreactivity
QVQHVESVGGLVQAGGSLRLSCAASGFISDWYAMGWYRQAPGKERELVATIDWIGGSTYADSVKGRFTISRDNAKNTVYLQMNSLKPEDTAVYYCAADSYFIAWYGAHYAYDYWGQGTQVTVSS	low polyreactivity
QVQLVESGGGLVQAGGSLRLSCAASGSIFTRYTMGWDRQAPRKERELVATNSSRGDGTYYADSVKGRFTISRDNAKNTVYLQMNSLKPEDTAVYYCSARYRRVLSGYGYWGHGTQVTVSS	high polyreactivity
QVQLVESGGGLVQAGGSLRLSCAASGSILRSNAMGWYIQAPGKERELVATITNSGGSTYSDSVKGSFTISRDNAKNTVYVQMNSLKPEVTAVYYCAKAGAGESIAKYDYWGQGTQVTVSS	low polyreactivity
QVQLVESGGGLVQAGGSLRLSCAASGSIFLSYNMGRYRQAPGKERELVAAITSGGSTKYADSVKGRFTISRDNAKNTVYLQMNSLKPEDTAVYYCNATPYSRLGYWGQGTQVTVSS	high polyreactivity

Sequence	polyreactivity (PSR sort gate)
QVQLVESGGGLVQAGGSLRLSCAASGRIFYHNVMGWYRQAPGKERELVAGIRSRGGSTSYADSVKGRFTISRDNAKNTVYLQMNSLKPEDTAVYYCATDTTLWYVLYDYWGQGTQVTVSS	low polyreactivity
QDQLVESGGGLVQAGGSLRLSCAASGLTFPYYAMGWYRQAPGKERELVAAITWSGGTTDYADSVKGRFTISRDNAKNTVYLQMNSLKPEDTAVYYCAARFLWKGYYWGQGTQVTVSS	low polyreactivity
QVKLVESGGGKVQAGGSLRLSCAASGYTFDPNAIGWYRQEPGKERELVAAISRIGGSTYYADSVKGRFTISRDNAKTTLYVQMNSLKPEDTAVYYCAVDWYLTGHWADDYWGQGTQVTVSS	low polyreactivity
QVQLVESGGGLVQAGGSLRLSCAASGSIFGINGMGWYRQAPGKERELVAAISDSGGSTYYADSVKGRFTISRDNAKNTVYLQMNSLKPEDTAVYYCAAETYWYFAQFYDLYSYDYWGQGTQVTVSS	low polyreactivity
QVQLVESVGGLVQAGGSLRLSCAASGRIFLIYSMGWYRQAPGKERELVADISKGGSSTYYADSVKGRFTISRDNAKNTVYLQMNSLKPEDSAVYYCAASGRWTGRQAAYDYWGQGTQVTVSS	high polyreactivity
QVQLVESGGGLVQAGGSLRLSCAASGLNFSHYTMGWYRQAPGKERELVAAITSSGGSTYYADSVKGRFTISRDNGKNTVYLQMNSLKPVDTAVYYCNKALTSKDYPVRTVERDYWGQGTQVTVSS	low polyreactivity
QVQLVESGGGLVQAGGSIRLSCAASGFTFSQYVMGWYRQAPGKERELVAAISYRGGSTYYADSVKGRFTSARDNAKNTVYLQMNSLQPEDTAVYYGAAVAYSWHNRYDYCGQGTQVTVSS	high polyreactivity
QVQLVESGGGLVQAGGSLRLSCAASGLIFLQYVMGWYRQAPGKEREFVATITDDGDTTYYADSVKGRFTISRDNAKNTVYLQMNSLKPEDTAVYYCAARYVPVYYWDYPYDYWGQGTQVTVSS	low polyreactivity
QVQRVESGGGLVQAGGSLRLRCAASGRIFQGNAMGWYRQAPGKERELVAAITWRGGTTYYADSVKGRFTISRDNAKNTVYLQMNSLKPEDTAVYYCNADWWRTLESDYWGQGTQVTVSS	low polyreactivity
QVQLVESGGGLVQAGGSLRLSCAASGITLYDNAMGWYRQAPGKERELVAAINVNDVSTYYADSVKGRFTISRDNAKNTVYLQMNSLKPEDTAVYYCAADSLYYGIGYWVVRYDYWGQGTQVTVSS	low polyreactivity
QVQLVESGGGLVQAGGSLRLSCAASGFTFSHYAMGWYRQAPGKERELVAAITASGGNTYYADSVKGRFTISRDNAKNTVYLQMNSLKPEDTAVYYCNAVSLKFTRKFDYWGQGTQVTVSS	high polyreactivity
QVQLVESGGGLVQAGGSLRLSCAASGRIFVIYAMGWNRQAPGKERELVASITDGTITNYADSVKGRFTISRDNAKNTVYLQMNSLKPEDTAVYYCAAGTQAHAYVVRPIEMDYWGQGTQVTVSS	low polyreactivity
QVQLVESGGGLVQAGGSLRLSCAASGNTFYGYAMGWYRQAPGKERELVASSTLSGDSTYYADSVKGRFTISRDNAKNTVYLQMNSLKPEDTAVYYCAGVYTYPLGYYHYTYDYWGQGTQVTVSS	low polyreactivity
QVQLVESGGGLVQAGGSLRLSCAASGRIFLSNAMGWYIQAPGKEREFVAAISWRGGSTYYADSVKGRFTISRDNAKNTVYLQMNSLKPEDTAVYYCAVDVRYYYGRSYDYWGQGTQVTVSS	high polyreactivity
QVQLVESGGGLVQAGGSLRLSCAASGFTFDGYGMGWYRHAPGKERELVAVITSGGSTKYADSVKGRFTISRDNAKNTVYLQMNSLKPEDTAVYYCNVVGGRPNPYYDEMDYWGQGPQVTVSS	low polyreactivity
QVQLVESGGGLVQAGGSLRLSCAASGSTFLYYSMGWYRQAPGKETELVAAIDSGGSTYYADSVKWRFTISRDNAKNTVYLQMNSLKPEDTAVYYCNPDFADHWPPNGPGAHDYWGQGTQVTVSS	low polyreactivity
QVQLVESGGGLVQAGGSLRLSCAASGFIFVVYAMGWYRQAPGKERELVAAITNGGITYYADSVKGRFTISRDNAKNTVYLQMHSLKPEDTADYYCNAQYTDYDGYVGYYYWGEGTQVTVSS	low polyreactivity
QVQLVESGGGLVQAGGSLRLSCAASGFIIDTYPMGCYRQAPGKERELVAAITRSGGSTYYADSVKGRFTISRDNAKNTVYLQMNSLKPEDTAVYYCAARQRYTRYDYWGQGTQVTVSW	high polyreactivity
QVQLVESGGGLVQAGGSLRLSCAASGRTFGGYTMGWYRQAPGKERELVAAINWSGTTYYADSVKGRFTISRDNAKNTVYLQMNSLIPEDTAVYYCAASLVSYYGLARDSVDYWGQGTQVNVSS	low polyreactivity
QVQLVESGGGLVQAGGSLRLSCAASGRIFTSYAMGWSRQAPGKERELVATISSADGTKYADSVKGRFTISRDNAKNTVYLQMNSLKPEDTAVYYCNAYVWSWNDYWGQGTQVTVSS	low polyreactivity
